# Test: yeast display, Sf9 membrane polyspecificity reagent, FACS + sequencing; frameworks hold sequencing errors
# How it was run: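 Polyreactivity labels are assigned by the sorting gate from which each nanobody was recovered. The gates were low and high (top ~1%), set on anti-HA fluorescence for expression and streptavidin fluorescence for reagent binding. Before sorting, galactose-induced (36–48 hours) yeast display cells were stained for 1 hour at 4 °C with 10% biotinylated, detergent-solubilized Sf9 membrane reagent.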
row,Sequence,polyreactivity (PSR sort gate)
1,QVQLVESGGGLVQAGGSLRLSCAASGSTFFKYAMGWYRPAPRKERELVAAISYSGGSTYYADSVKGRFTISRDNAKNTVYLQMNSLKPEDTAVYYCAARVQNRYRPYYYWGQGTQVTVSS,high polyreactivity
2,QVQLVESGGGLVQAGGSLRLSCAASGSTFFKYAMGWYRQAPGKERELVAGITSDGSTNYADSVKGRFTISRDNAKNTVYLQMNSLKPEDTAVYYCAADGSKWGVGTYDYWGQGTQVTVSS,low polyreactivity
3,QVQLVESGGGLVQAGGSLRLSCAASGSTFFLYAMGWYRQAPGKERELVAAITYTDGDTYYADSVKGRFTISRDNAKNTVYLQMNSLKPEDTAVFYCNAGGDEPVYGSGYDYWGQGTQVTVSS,low polyreactivity
4,QVQLVESGGGLVQAGGSLRLSCAASGSTFFLYAMGWYRQAPGKERELVASITDGGSTNYADSVKGRFTISRDNAKNTVYLQMNSLKPEDTAVYYCNALARSSRYDYWGQGTQVTVSS,low polyreactivity
5,QVQLVESGGGLVQAGGSLRLSCAASGSTFFQYAMGWYRQAPGKERELVAAITTSGGRTYYADSVKGRFTISRDNAKNTVYLQMNSLKPEDTAVYYCAGYNYWGQGTQVTVSS,high polyreactivity
6,QVQLVESGGGLVQAGGSLRLSCAASGSTFFRNAKGWYRQAPGKERELVAANSSTGGTTYYAHSVKGRFTISRDNAQNTVYLQMNSLKPEETAVYYCAAAGYIENDGYVQKFEYWGQGTQVTVSS,low polyreactivity
7,QVQLVESGGGLVQAGGSLRLSCAASGSTFFRYAMGLYRQAPGKERELVAAISWSGGTTYYADSVKGRFTISRDNAQNTVYLQMYSLKPEDTAVYYCNAVRQGHILDYWGQGTQVTVSS,low polyreactivity
8,QVQLVESGGGLVQAGGSLRLSCAASGSTFFRYAMGWYRQAPGKEREFVAAISKRGGSTHYADSVQGRFTLSRDNAKNTVYLQMNSLKPEHTAVYYCAASSFTSSYNYWGQGTQVTVSS,high polyreactivity
9,QVQLVESGGGLVQAGGSLRLSCAASGSTFFRYSMGWYRQAPGKEREFVAAISKRGGSTHYADSVKGRFTITRDNAKNTVYLQMNSLKPEDTAVYYCAASSFNSSYNYWGQGTQVTVSS,high polyreactivity
10,QVQLVESGGGLVQAGGSLRLSCAASGSTFFSNTMGWYRQAPGKERELVAAITDSGTSTYYADSVKGRFTISRDNAKNTVYLQMNSLKPEDTAVYYCAAYPSGWYDYWGQGTLVTVSS,low polyreactivity
11,QVQLVESGGGLVQAGGSLRLSCAASGSTFFSYAMGWYRQAPGTERELVAAITRSGGSTYYADSVKGRFTISRDNAKNTVYLQMNSLKPEDTAVYYCAPRRYEPKAVYYWGQGTQVTVSS,high polyreactivity
12,QVQLVESGGGLVQAGGSLRLSCAASGSTFFTYAMGWYRQAPGKERELVASISIGGSTNYADSVKGRFTISRDNAKNTVYLQMNSLKPEDTAVYYCAIRYFTFGVDYDYWGHGTQVTVSS,low polyreactivity
13,QVQLVESGGGLVQAGGSLRLSCAASGSTFFVNAMGWYRQAPGKERELVAAISYSGGSTYYADSVKGRFTSSRDNAKNTVYLQMNSLKPEDTAVYYCAKDGGPAQDIGMDYCGQGTQVTVSS,low polyreactivity
14,QVQLVESGGGLVQAGGSLRLSCAASGSTFFVYTMGWYRQAPGKERELVAAISGSGGSTSYADSVKGRFTISRDNAKNTVYLQMNSLKPEDTAVYYCAARRHVYLRGSTFEFNYWGQGTQVTVSS,high polyreactivity
15,QVQLVESGGGLVQAGGSLRLSCAASGSTFFYNAMGWSRQAPGKERELVAAIRFSGGSTRYADSVKGRFTISRDNAKNTVYLQMNSLKPEDTAVYYCNARGFRESIWYQYDYWGQGTQVTVSS,high polyreactivity
16,QVQLVESGGGLVQAGGSLRLSCAASGSTFFYNAMGWYRQAPGKERESTNYADSVKGRFTISRDNAKNTVYLQMNSLKPEDTAVYYSAKDRSYYRKFSSYRLHDYWGHGTQVTVSS,low polyreactivity
17,QVQLVESGGGLVQAGGSLRLSCAASGSTFFYYTIGWYRQAPGKERELVASITNRGGNTYYADSVKGRFTISRDNAKNTVYLQTNSLKPEDTAVYYCARRYYGYSGRYDYWGQGTQVTVSS,high polyreactivity
18,QVQLVESGGGLVQAGGSLRLSCAASGSTFFYYTMGWYRQAPGKERELVASITNRGGNTYYADSVKGRFTISRDNAKTTVYLQMNSLKPEDTAVYYCARRYYWYSGRYDYWGQGTQVTVSS,high polyreactivity
19,QVQLVESGGGLVQAGGSLRLSCAASGSTFGAYAMGWYRQAPGKERELVAAISRSGASTYYADSVKGRFTISRDNAKNTVYLQMNSLKPVDTAVYYCAAKIVSRYRVIYDYWGQGTQVTVSS,high polyreactivity
20,QVQLVESGGGLVQAGGSLRLSCAASGSTFGDYAMGWSRQAPGKERELVAAISRGGSTYYADSVKGRFTISRDNEKNTVYLQMNSLKPEDTAVYYCNKDEGYSASPDGSTFDYWGQGTQVTVSS,low polyreactivity
21,QVQLVESGGGLVQAGGSLRLSCAASGSTFGDYAMGWYRQAPGKERELVAAISFSDGSTYYADSVKGRFTISRDNAKNTVYLQMNSLKPEDTAVYYCAKVDYWVYRWYTYDYWGQGTQVTVSS,low polyreactivity
22,QVQLVESGGGLVQAGGSLRLSCAASGSTFGDYTMGLYRQAPGKERELVAAITLTGGSTYYADSVKGRFTISRDNAKNTVYLQMNSLKPEDTAVYYCAKEWIFDFNYWGQGTQVTVSS,low polyreactivity

row,Sequence,polyreactivity (PSR sort gate)
1,QVQLVESGGGLVQAGGSLRLSCAASGSTFGENAMGWYRQAPGKERELVAGINSTGGSTYYADSVKGRFTISRDHAKNNVYLQMNSLNPEDTAVYYCAAGDWYSGNTSHFYYWGQGTQVTVSS,low polyreactivity
2,QVQLVESGGGLVQAGGSLRLSCAASGSTFGEYAMGWYRQAPGKERELVASITFSAGSTDYADSVKGRFTISRDNAKNTVYLQMNSLKPEDTAVYYCAADGWWPWEYDYWGQGTQVTVSS,low polyreactivity
3,QVQLVESGGGLVQAGGSLRLSCAASGSTFGFNAKGWYRKAPGKERELFAAIDKSGDRHYYADSVKGRFTISRDNAKNSVYLQMNSLKTVDTAVYYCAGDIPFYRYEYWGQGTQVTVSS,high polyreactivity
4,QVQLVESGGGLVQAGGSLRLSCAASGSTFGFNAMGWYRQAPGKERELVAAIDGSAGSTYYADSVKGRFTISRDNAKNTVYLQMNSLKPEDTAVYYCAADIYWFIEYEYWGQGTQVTVSS,low polyreactivity
5,QVQLVESGGGLVQAGGSLRLSCAASGSTFGFYAMGWYRQAPGKERELVAAISVSGGSTYYADSVKGRFTISRDNAKNTVYLQMNSLNPEDTGVYYCNKVWRPRYYWGLGTQVTVSS,high polyreactivity
6,QVQLVESGGGLVQAGGSLRLSCAASGSTFGFYTMGWYRPAPGKERELVAAISWSTGRTYYADSVKGRFTISRDNAKNTVYLQMNSLKPEDTAVYYCAARAVDKYRFGGRYDYWGQGTQVTVSS,low polyreactivity
7,QVQLVESGGGLVQAGGSLRLSCAASGSTFGGNAMGWYRKAPGKERELVAVISKRGGSTYYADSVKGRFTISRDNAKNTVYLQMNSLKPEDTAVYYCAATYSRYWSPTYDYWGQGTQVTVSS,high polyreactivity
8,QVQLVESGGGLVQAGGSLRLSCAASGSTFGGNAMGWYRPAPGKERELVAGITTGGTTNYADSVKGRFTISRDNAKNTVYLQMISLIPEDTAVYYCAAGPSSSLTLYDYWGQGTQVTVSS,low polyreactivity
9,QVQLVESGGGLVQAGGSLRLSCAASGSTFGGNAMGWYRQAPGKERELVAAISSGDSTTYADSVKGRFTISRDNAKNTVYLQMNSLKPEDTAVYYSNRSPKSGQVTYLYSVNAHYDYWGQGTQVTVSS,low polyreactivity
10,QVQLVESGGGLVQAGGSLRLSCAASGSTFGGYAMGWYRQAPGKEREFVAAISWRGGGTYYADSVKGRFTISRDNAMNTVYLQMNSLKPEDTAVYYCAAERRYTYQYNYWGQGTQVTVSS,high polyreactivity
11,QVQLVESGGGLVQAGGSLRLSCAASGSTFGGYAMGWYRQAPGKERELVAAISQSGTRSYYADSVKGRFTISRDNAKNTVYLQMNSLKPEDTAVYYCAAEKRFRKYDYWGQGTQVTVSS,high polyreactivity
12,QVQLVESGGGLVQAGGSLRLSCAASGSTFGGYAMGWYRQAPGKERELVAGISSGTSTYYADSVKGRFTISRDNAKNTVYLQMNSLKPEDTAVYYCAKYSYYRKLGYWGQGTQVTVSS,high polyreactivity
13,QVQLVESGGGLVQAGGSLRLSCAASGSTFGGYAMGWYRQAPGKERELVATINYSDGSTYYADSVKGRFTISRDNAKNTVYLQMNSLKPEDTAVYYCAKRFGSGWAWFGYWGQGTQVTVSS,low polyreactivity
14,QVQLVESGGGLVQAGGSLRLSCAASGSTFGGYAMGWYRQAPGKERELVATITGGGSTNYADSVKGRFTISRDNAKNTVYLQMNSLKPEDTAVYYCAATEKYQYKVFYDPVGAYDYWGQGTQVTVSS,low polyreactivity
15,QVQLVESGGGLVQAGGSLRLSCAASGSTFGGYTMGWYRQAPGKERELVAAITSGGGRTYYADSVKGRFTISRDNSKNTVYLQMNSLKPEDTAVYYCATGYKGLYWKYDYWGQGTLVTVSS,high polyreactivity
16,QVQLVESGGGLVQAGGSLRLSCAASGSTFGHNAMGWYRQATGKERELVAAISKSGGRTYYADSVKGRFTISRDNAKNTVYLQMNSLKPEDTAVYYCAKDGVVGSGTLNIYDYWGQGTQVTVSS,low polyreactivity
17,QVQLVESGGGLVQAGGSLRLSCAASGSTFGHYAMGCYRQAPGKERDLVAAISWSGASTYYADSVKGRFTISRDNAKNTVYLQMNSLKPEDTAVYYCAAESYRQTYYVGDGYEDDYWGQGTQVTVSS,low polyreactivity
18,QVQLVESGGGLVQAGGSLRLSCAASGSTFGHYAMGRYRQAPGKESELVSAISTSGGRTYYADSVKGRFTISRDNAKNTVYLQMNSLKPEDTAVYYCATRRYGVDKFDYWGQGTQVTVSS,high polyreactivity
19,QVQLVESGGGLVQAGGSLRLSCAASGSTFGKYAMGWYRQAPGKERELVAAITESDSSTYYADSVKGRFTLSRDNAKNTVYLQMNSLKPEDTAVDYCAADSLYSYPWSTYFYGGDYWGQGTQVTVSS,low polyreactivity
20,QVQLVESGGGLVQAGGSLRLSCAASGSTFGLNVMGWYRQAPGKEREFVAGISRSGGRTYYADSVKGRFTISRDNAKNTVYLQMNSLKPADTAVYYCAADYWTGITPDAIGDYWGQGTQVTVSS,low polyreactivity
21,QVQLVESGGGLVQAGGSLRLSCAASGSTFGLYAMGWYRQAPGKERELVAAITIRGGSTYYADSVKGRFTISRDNAKNTVYLQMNSLKPEDTAVYYCAADYWYGGFEYWGQGTQVTVSS,low polyreactivity
